The values that follow come from article PMC8399232, “Soy Isoflavones Inhibit Both GPIb-IX Signaling and αIIbβ3 Outside-In Signaling via 14-3-3ζ in Platelet” (Molecules, 2021).

The test addresses T1, integrin β3 (endogenous, platelets) (mouse (endogenous in platelets), UniProt O54890 26-787).
T1 construct: integrin β3 endogenous in platelets, precipitated with an anti-integrin β3 antibody; platelets were prepared from mice; In platelets β3 stands in the integrin αIIbβ3; also called platelet integrin β3; β3 integrin; source: endogenous, platelet lysate (NP-40 lysis buffer)
T1 sequence (looked up): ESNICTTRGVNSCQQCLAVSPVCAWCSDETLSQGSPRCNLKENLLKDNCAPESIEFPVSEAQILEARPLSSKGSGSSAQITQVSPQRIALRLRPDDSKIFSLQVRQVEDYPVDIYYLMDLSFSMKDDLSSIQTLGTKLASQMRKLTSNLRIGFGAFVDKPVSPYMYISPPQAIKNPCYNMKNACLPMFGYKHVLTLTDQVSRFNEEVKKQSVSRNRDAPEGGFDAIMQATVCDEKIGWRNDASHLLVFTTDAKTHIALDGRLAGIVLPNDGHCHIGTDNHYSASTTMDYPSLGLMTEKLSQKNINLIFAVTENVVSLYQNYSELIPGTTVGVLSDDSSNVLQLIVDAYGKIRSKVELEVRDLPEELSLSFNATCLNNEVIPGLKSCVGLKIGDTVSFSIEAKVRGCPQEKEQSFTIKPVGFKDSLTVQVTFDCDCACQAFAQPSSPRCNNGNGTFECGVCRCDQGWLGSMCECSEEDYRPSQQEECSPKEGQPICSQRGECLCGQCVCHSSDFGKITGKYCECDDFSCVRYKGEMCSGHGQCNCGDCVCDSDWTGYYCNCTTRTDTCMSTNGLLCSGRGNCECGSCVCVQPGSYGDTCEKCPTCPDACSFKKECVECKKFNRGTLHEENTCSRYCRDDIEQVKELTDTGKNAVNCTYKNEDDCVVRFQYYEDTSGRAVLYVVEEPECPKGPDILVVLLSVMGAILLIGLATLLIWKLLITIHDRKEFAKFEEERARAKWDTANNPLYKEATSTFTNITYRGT
Description: co-IP; platelets pretreated with 0.1 % DMSO, 100 μM isoflavones or 3 μM SQ29548, stimulated with 0.04 U/mL thrombin, lysed in NP-40 lysis buffer; precipitated with integrin β3 antibody and protein A magnetic beads overnight at 4 °C; western blot. Particulars: partners not purified.

B1: 14-3-3ζ (endogenous, platelets) (natural protein, mouse (endogenous in platelets), UniProt P63101 1-245, looked up)
chain: MDKNELVQKAKLAEQAERYDDMAACMKSVTEQGAELSNEERNLLSVAYKNVVGARRSSWRVVSSIEQKTEGAEKKQQMAREYREKIETELRDICNDVLSLLEKFLIPNASQPESKVFYLKMKGDYYRYLAEVAAGDDKKGIVDQSQQAYQEAFEISKKEMQPTHPIRLGLALNFSVFYYEILNSPEKACSLAKTAFDEAIAELDTLSEESYKDSTLIMQLLRDNLTLWTSDTQGDEAEAGEGGEN
notes: 14-3-3ζ endogenous in platelets; platelets were prepared from mice; The methods tell of platelets prepared from wild type and GPIbα deficient mice only; the species is not repeated for the co-immunoprecipitation; source: endogenous, platelet lysate (NP-40 lysis buffer)
Turning to B1, the “fold increase of co-precipitated 14-3-3ζ on platelet activation against resting platelets” value came to 2.7 fold.
